# Values quoted from earlier work, collected in article PMC4519920.
# Target: hsp70 (UniProt P0DMV8)
# Chain of UniProt P0DMV8 (P0DMV8 2-641): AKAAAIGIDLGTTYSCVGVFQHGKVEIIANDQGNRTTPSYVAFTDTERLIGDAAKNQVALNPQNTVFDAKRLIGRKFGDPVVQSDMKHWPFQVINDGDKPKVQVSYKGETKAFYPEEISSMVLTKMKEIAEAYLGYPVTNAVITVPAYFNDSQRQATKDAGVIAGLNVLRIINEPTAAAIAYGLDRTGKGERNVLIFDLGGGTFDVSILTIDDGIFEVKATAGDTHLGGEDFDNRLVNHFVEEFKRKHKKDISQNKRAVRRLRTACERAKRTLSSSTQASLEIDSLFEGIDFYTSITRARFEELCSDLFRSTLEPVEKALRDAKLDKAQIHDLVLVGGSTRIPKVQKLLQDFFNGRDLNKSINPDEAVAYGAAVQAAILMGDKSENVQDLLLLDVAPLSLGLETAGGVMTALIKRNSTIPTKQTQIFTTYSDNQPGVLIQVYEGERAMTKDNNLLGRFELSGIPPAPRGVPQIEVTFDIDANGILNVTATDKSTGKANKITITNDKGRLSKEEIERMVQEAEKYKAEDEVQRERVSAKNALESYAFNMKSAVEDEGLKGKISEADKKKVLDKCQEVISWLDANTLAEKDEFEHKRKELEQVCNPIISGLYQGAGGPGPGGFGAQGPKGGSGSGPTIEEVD
substance,measurement,value
Nucleoprotein NTAIL Box2 (from UniProt P35972),Kd,10 nM
